Test [1] concerns the target bovine serum albumin (BSA) (bovine) (UniProt P02769). Put plainly: cell-based or functional assay.
In test [2] the target is C5b-8 and C5b-9 complexes (human). Kind of test: cell-based or functional assay.

UniProt P02769, sequence (P02769 25-607 limits assumed): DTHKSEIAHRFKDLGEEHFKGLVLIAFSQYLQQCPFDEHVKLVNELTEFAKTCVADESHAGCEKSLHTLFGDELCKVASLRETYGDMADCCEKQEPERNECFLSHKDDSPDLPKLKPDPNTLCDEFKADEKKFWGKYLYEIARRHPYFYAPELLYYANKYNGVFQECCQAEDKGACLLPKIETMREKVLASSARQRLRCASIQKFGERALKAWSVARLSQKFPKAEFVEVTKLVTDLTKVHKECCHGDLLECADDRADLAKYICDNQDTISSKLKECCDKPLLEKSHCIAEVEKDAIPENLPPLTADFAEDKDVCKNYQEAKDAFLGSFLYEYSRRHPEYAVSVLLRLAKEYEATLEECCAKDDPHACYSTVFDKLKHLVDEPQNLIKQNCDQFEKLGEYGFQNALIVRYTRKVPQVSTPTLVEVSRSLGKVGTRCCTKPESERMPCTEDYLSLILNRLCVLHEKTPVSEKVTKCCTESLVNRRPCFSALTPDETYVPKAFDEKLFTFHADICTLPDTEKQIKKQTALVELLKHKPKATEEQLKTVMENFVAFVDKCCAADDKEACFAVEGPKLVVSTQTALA

For the molecule “APT070, [SCR1-3]-Cys-S-S-[MSWP-1] (from UniProt P17927 42-237) (other; unit assumed)”, in test [1], the IH50 of inhibition of haemolysis, 4 mg/ml BSA [No BSA: 0.26 at the 13th table, row 8, column 3] is 1.3 nM and the IH50 of inhibition of haemolysis, 40 mg/ml BSA [No BSA: 0.26 at the 13th table, row 8, column 3] was found to be 10 nM.

“APT070, [SCR1-3]-Cys-S-S-[MSWP-1] (from UniProt P17927 42-237)”: the IH50 (nM) of inhibition of haemolysis, Presence of Albumin (40 mg/ml) [absence of albumin: 0.26 at the 11th table, row 9, column 3] in test [1] was 10 nM.

B1: Recombinant human CD59 (lacking the GPI anchor), with an amino-terminal methionine and a carboxy-terminal cysteine (APT2439) (protein)
chain: MLQCYNCPNPTADCKTAVNCSSDFDACLITKAGLQVYNKCWKFEHCNFNDVTTRLRENELTYYCCKKDLCNFNEQLENC
For B1, in test [2], the IH50 (nM), reactive lysis of guinea pig erythrocytes, Absence of HSA was 600 nM and the IH50 (nM), reactive lysis of guinea pig erythrocytes, Presence of HSA (2.7 mg/ml) was 400 nM.

B2: APT3280, conjugate of APT2439 and APT3146 via a disulphide (protein, human)
chain: B1 chain
peptide: KSSKSPSKKDDKKPGDC
modifications: bisMyr at the N-terminal Lys; Cys (thiopyridylated before conjugation) disulphide-linked to CD59; carboxy-terminal Cys disulphide-linked to APT3146
Consider B2, for which, in test [2], the IH50 (nM), reactive lysis of guinea pig erythrocytes, Absence of HSA was 0.1 nM and the IH50 (nM), reactive lysis of guinea pig erythrocytes, Presence of HSA (2.7 mg/ml) was found to be 0.08 nM.

B3: APT3073, conjugate of APT2439 and APT2258 via a disulphide (protein, human)
chain: B1 chain
peptide: GSSKSPSKKDDKKPGDC
modifications: N-terminal myristoyl (Myr-); C-terminal amide (-NH2); Cys (2-SPy before conjugation) disulphide-linked to CD59; carboxy-terminal Cys disulphide-linked to APT2258
Consider B3, for which, in test [2], the IH50 (nM), reactive lysis of guinea pig erythrocytes, Absence of HSA was 0.8 nM and the IH50 (nM), reactive lysis of guinea pig erythrocytes, Presence of HSA (2.7 mg/ml) was 6 nM.

Values taken from patent publication US20060241048A1.
